Data set [1] in a line: Particle size, polydispersity and zeta-potential by dynamic light scattering. The data set is classed as physicochemical. The following applies: Table 6. Here is the method: Nanoparticle carrier particles were formed by the methods of the preceding Example, and characterized as follows. The particle size and the zeta-potential were measured using Zeta Plus zeta-potential analyzer (Brookhaven Instruments Ltd., New York, N.Y.), which employs the dynamic light scattering technique for particle size measurement. The particle size and zeta-potential measurements were made after 1:1000 dilution of particle stock in filtered deionized water. Further, the particles were visualized using a transmission electron microscope (TEM). The carbon-coated grids were floated on a suspension droplet of plain or functionalized nanoparticles on a flexible plastic film (Parafilm, Pechiney Plastic Packaging, Neenah, Wis.) to allow the adsorption of nanoparticles onto the grid. After drying the particles, uranyl acetate was added as a negative stain to the carbon grid and allowed to react with the particles. This procedure makes the particles electron dense, allowing their visualization using an electron microscope. The particles were photographed using EM410 Phillips electron microscope (Eindhoven, The Netherlands) set at 60 kV and a magnification of 153000×.
Characterization of particles: The particle size and the zeta-potential were measured using ZetaPlus® zeta-potential analyzer, Brookhaven Instruments Ltd. (New York, N.Y.), which employs the dynamic light scattering technique for particle size measurement. The particle size and zeta-potential measurements were carried out after 1:1000 dilution of particle stock in filtered deionized water before lyophilization in filtered deionized water. The effective diameter of conjugated nanoparticles was higher than that of unconjugated nanoparticles.
Particle Size Analysis: Particle size and zeta-potential of the nanoparticles before and after conjugation following lyophilization were measured in double distilled water (100 μl of particle/1 ml of water) using dynamic light scattering (DLS). After lyophilization the plasmid loaded particles were weighed (1 mg) into glass Kimble tubes. To each tube, 1 ml of double distilled water was added and vortexed at high speed (Vortex Genie, Scientific Industries, Bohemia, N.Y.) till the particles were resuspended. The particle size and zeta potential was determined using dynamic light scattering after dilution (1:10 in double distilled water) (Brookhaven Instruments Corp., Holtsville, N.Y.). Nanoparticle size after lyophilization was 210.4±0.68 nm and zeta potential was −32.85±0.87 mV. Nanoparticle size and zeta potential was measured after conjugation with deslorelin and transferrin. Similarly, the unconjugated nanoparticles were also treated under the same conditions as with the conjugated nanoparticles (the conjugation protocol as mentioned above).
Transport studies were conducted in bovine nasal tissue. Bovine nasal tissue was obtained from freshly slaughtered cattle, and different regions (MTA, MTP, ITP) were prepared as described in Example 13. Nanoparticles coupled to deslorelin or transferring via aldehyde sulfate moieties were prepared as described in Example 3. The nanoparticle size was measured using a Zeta Plus Analyzer (Brookhaven Instruments Limited, UK). Particle size was analyzed before and after ligand conjugation in deionized filtered water.

A further data set has as its system ARPE-19 cells. Description: Nanoparticle uptake by human retinal pigment epithelial cells. The format is cell-based. The following applies: 1 ml of 100 μg/ml suspension in serum free medium. On the procedure:
A study was performed to examine the effect of targeting moieties on biodegradable and non-biodegradable carrier particles and their uptake in ocular cells. The biodegradable and non-biodegradable targeted carrier particles of the preceding Example were used. Uptake of nanoparticles by human retinal pigment epithelial cells (ARPE-19 cell line) was quantified by measuring fluorescence in cell lysate obtained after incubation of targeted or untargeted (unconjugated) nanoparticles with ARPE-19 cell monolayers.
ARPE-19 cells were obtained from American Type Culture Collection (ATCC, Manassas, Va.). The cells were maintained in culture according to supplier's recommendation. All studies were conducted using confluent cells of passages 20-30. Dulbecco's modified Eagle's medium (DMEM-F/12), fetal bovine serum, penicillin-streptomycin and L-glutamine were obtained from Gibco-BRL (Invitrogen Inc., Carlsbad, Calif.). Cell culture flasks (T-75 cm^2) and plates were purchased from Corning Inc., (Corning, N.Y.). To investigate the uptake of particles, ARPE-19 cells between 20-30 passages were cultured in 24-well plates until confluency. […] Fluorescence intensity of the cell lysates was determined at an excitation and emission wavelength of 505 and 515 nm, respectively, for FluoSpheres®. […]

Another data set deals with T1, LHRH-receptor (Bos taurus, UniProt P32236).
T1 construct: The tissue homogenate was then centrifuged at 15000 g for 15 min at 4° C. to separate the crude membrane from the buffer; from tissue; host or cells: bovine nasal mucosa (MTA, MTP, ITP regions) and bovine pituitary, crude membrane homogenates
T1 sequence (P32236 1-328): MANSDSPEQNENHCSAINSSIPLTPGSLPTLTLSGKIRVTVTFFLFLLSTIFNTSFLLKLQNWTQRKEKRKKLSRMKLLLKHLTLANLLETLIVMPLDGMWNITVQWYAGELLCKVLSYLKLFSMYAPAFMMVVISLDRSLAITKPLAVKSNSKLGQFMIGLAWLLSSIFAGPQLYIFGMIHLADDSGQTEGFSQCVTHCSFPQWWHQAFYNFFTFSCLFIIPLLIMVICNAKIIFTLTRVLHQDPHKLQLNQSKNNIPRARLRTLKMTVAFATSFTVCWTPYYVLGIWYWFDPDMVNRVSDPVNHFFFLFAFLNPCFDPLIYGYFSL
Description: Receptor binding assays (kinetic, saturation, competition) with 125I-deslorelin in bovine pituitary and nasal tissue homogenates. The following applies: 4° C.; remained stable until 4 hr. Here is the method: Radioactivity was measured in the pellet using a Perkin-Elmer γ-counter.
Reprod. […] Reprod. […] Radioactivity was measured in the pellet using a Perkin-Elmer γ-counter. […] The experiment was repeated three times.
Competition Studies: To determine the amount of unlabelled deslorelin required to displace the radioactivity, competition studies were conducted. […] Assays were performed in triplicates. At the end of 4 hr, the incubation tubes were centrifuged at 10,000 g for 20 min at 4° C. to separate the bound fraction. Radioactivity was measured in the pellet using a Perkin-Elmer γ-counter. The same controls as in the kinetic and saturation studies were used. The experiment was repeated three times.

Here are results for two substances from US8821943B2, “Methods and compositions for targeted delivery of therapeutic agents” (Board of Regents of the University of Nebraska, priority 2006, dated 2014).

In the case of “Transferrin-PLGA: transferrin conjugated nile red loaded PLGA nanoparticles”, the Zeta potential in data set [1] is listed as −17.94 ± 1.5 mV. The substance further displayed an Effective diameter in data set [1] (1:1000 dilution in filtered deionized water) of 385.8 ± 4.6 nm. Besides, the “percentage uptake at 3 h by ARPE-19 cells” value with ARPE-19 cells was determined as 3.32±0.1%.

For the substance “^125I-deslorelin: I^125 labeled deslorelin radioligand (EHWSYWLRP; D-residues; non-natural residues)”, the “time at which binding reached a maximum” value with LHRH-receptor came out at 1.5 h.
